Target: T1, Gonadotropin Releasing Hormone (GnRH) peptide (mammalian (same amino acid sequence in …, N-terminal pyroglutamic acid (pGlu))); C-terminal amide (GlyNH2))
T1 construct: GnRH peptide bought from Peptides International; also called LHRH; Luteinizing Hormone Releasing Hormone
T1 peptide: EHWSYGLRPG
Experiment: competition ELISA (Friguet method): supernatant pre-incubated overnight with free GnRH peptide, then GnRH-coated plate; nonlinear regression
Experimental: Supernatant was harvested […] after transfection and passed through a 0.2 μm syringe filter (Corning, Corning, N.Y.). Filtered supernatant was evaluated for total antibody expression and GnRH binding activity using protein A and GnRH ELISAs, respectively. Polystyrene ELISA plates (Corning) were coated overnight at room temperature with protein A (5 μg/mL, Sigma Aldrich, St Louis, Mo.) or GnRH peptide (1 μg/mL, Peptides International, Louisville, Ky.) in phosphate buffered saline. Plates were washed five times with PBS containing 0.05% tween 20 (Sigma), then blocked for one hour at room temperature with 1% bovine serum albumin in PBS. Filtered supernatant serially diluted two-fold in PBS was incubated in blocked wells for one hour. Plates were washed five times, then incubated for one hour with a biotinylated goat anti-human IgG1 antibody (Jackson ImmunoResearch, West Grove, Pa.) diluted 1:10,000 in blocking solution. Plates were then washed, incubated with streptavidin-HRP (Abcam, Cambridge, Mass.) diluted 1:30,000 in blocking solution for one hour, washed again, and developed with TMB substrate (Sigma). The reaction was stopped after 20 minutes by the addition of 2 N sulfuric acid. Absorbance was measured at […], with a reading at 540 nm subtracted as background. […] The fraction of antibody binding sites occupied by GnRH was calculated using the method of Stevens, 1987. […]

B1: chimeric anti-GnRH antibody (murine variable regions of hybridoma USASK/DSIL-LHRH-A1, ATCC HB-9094, fused with human IgG1 heavy chain and kappa light chain … (antibody, V domains shown)
VH: QIQLVQSGPELKKPGETVKISCKASGYPFTNYGMNWVKQAPGKGLKWMGWINTYTGEPACADDFRGRFAISLETSARTAYLQINNLINEDTATYFCARTGGGRYNYGMDYWGQGTSVTVSS
VL: QIVLTQSPAIMSASPGEKVTITCSATSSVSYIHWFQQKPGTSPKLWIYSTSNLASGVPVRFSGSGSGTSYSLTISRMEAEDAATYYCQQRSSYPPTFGGGTKLEIKR
notes: Full-length chimeric heavy and light chains: murine variable regions on human IgG1 and human kappa constant domains; Tested as filtered supernatant of transiently transfected 293 HEK cells; also called chimeric GnRH antibody; chimeric antibody
Binder B1 has a Kd of 3.9 nM.

Source: patent publication US20150230430A1 (University of Pennsylvania, published 2015)
